Our source for the self-cleavage values is the RNAGym collection of RNA variant scans (doi:10.7554/elife.80360).

The chains are these.
B1: HDV Ribozyme (parent)
chain: GGCCGGCAUGGUCCCAGCCUCCUCGCUGGCGCCGGCUGGGCAACAUUCCGAGGGGACCGUCCCCUCGGUAAUGGCGAAUGGGACCCA

The variants in the data set derive from B1. The experiment in a line: self-cleavage, relative activity (ratio to wild type); higher = more cleavage; co-transcriptional.
As for U27G G38A, the self-cleavage came out at 0.128.

With G35C, the self-cleavage is 0.254.

In the case of C33U G34C, the self-cleavage was 0.0978.

Take U9C G10U: the self-cleavage was 0.731.

U12G G55C: the self-cleavage amounted to 0.95.

With G54U G67U, the self-cleavage worked out at 0.774.

Turning to C75A, the self-cleavage was determined as 0.171.

Turning to C57G U69C, the self-cleavage was found to be 1.06.

For the variant U27C U47C, the self-cleavage was 0.511.

Turning to U9G C84G, the self-cleavage is 0.222.

Consider C15A G39C, for which the self-cleavage is 0.107.

A51G G73U: the self-cleavage amounted to 0.397.

For G1U U72A, the self-cleavage was 0.466.

Turning to U47G C75G, the self-cleavage worked out at 0.317.

G35C A77C: the self-cleavage worked out at 0.0898.

For G34U G68U, the self-cleavage was determined as 0.0966.

On to A8U G52A, for which the self-cleavage worked out at 0.692.

Consider A16U C49A, for which the self-cleavage came out at 0.895.

In the case of G1A C85U, the self-cleavage is 0.0755.

For the variant C3G C4G, the self-cleavage was 1.

In the case of U20A G29U, the self-cleavage stood at 0.0875.

For C19G C61U, the self-cleavage was 0.0707.

Regarding C13G C75G, the self-cleavage stood at 0.128.

For the variant C41U A42U, the self-cleavage is 0.831.

A70G A87C: the self-cleavage is 0.883.

C21U C66A: the self-cleavage turned out to be 0.153.

With C4A C49A, the self-cleavage turned out to be 0.424.

Turning to C19A C66G, the self-cleavage came to 0.115.

Take G10U G28A: the self-cleavage amounted to 0.0791.

For C30G C57A, the self-cleavage was 0.138.

With A8U, the self-cleavage was determined as 0.863.

G25C U46C: the self-cleavage was 0.0875.

Take C49G G80C: the self-cleavage turned out to be 0.178.

As to C21G C86G, the self-cleavage was found to be 0.0369.

As to G34A A70C, the self-cleavage turned out to be 0.0941.

Turning to G68C G76C, the self-cleavage was determined as 1.03.

For the variant G5A G31C, the self-cleavage turned out to be 0.095.

As to U27A C75U, the self-cleavage came out at 0.0519.

As for A8C G35C, the self-cleavage stood at 0.

U9C U60G: the self-cleavage came out at 0.723.

In the case of C33G C63G, the self-cleavage came out at 0.369.

Consider G73A G74A, for which the self-cleavage turned out to be 0.248.

As for G34U C75G, the self-cleavage came to 0.214.

G10C C30G: the self-cleavage worked out at 0.212.

C57G G59U: the self-cleavage was found to be 0.978.

As for A16C U65G, the self-cleavage is 0.755.

Consider G54C G81U, for which the self-cleavage stood at 0.19.

In the case of G17A A45U, the self-cleavage worked out at 0.696.

Take U23C A71U: the self-cleavage is 0.808.

In the case of G68U U72A, the self-cleavage is 0.277.

Take G28U U60A: the self-cleavage came out at 0.17.

Consider C21A A71G, for which the self-cleavage came to 0.0573.

As for C3G A42U, the self-cleavage was 0.116.

As to G52U G54C, the self-cleavage is 0.684.

Turning to U47A G67A, the self-cleavage came out at 0.897.

As for G6C G81C, the self-cleavage came to 0.185.

For the variant G2A A77U, the self-cleavage stood at 0.0631.

For the variant G2U U37G, the self-cleavage was found to be 0.0422.

Turning to G2U U37C, the self-cleavage was determined as 0.0801.

As to G17C A56G, the self-cleavage is 0.145.

In the case of C41U A78C, the self-cleavage was determined as 0.178.

Take C61A G67C: the self-cleavage came to 0.831.

Consider G6C U72G, for which the self-cleavage came to 0.229.

For the variant U27C G81C, the self-cleavage worked out at 0.369.

Consider U20C C49U, for which the self-cleavage stood at 0.192.

U27G G54A: the self-cleavage turned out to be 0.578.

In the case of C58U U60G, the self-cleavage was determined as 1.2.

Take U12G C64A: the self-cleavage is 0.594.

In the case of G31U U79A, the self-cleavage stood at 0.148.

As to G39U A45U, the self-cleavage came out at 0.325.

With C64U, the self-cleavage stood at 0.995.

As for G17A G59U, the self-cleavage was 0.852.

For G25U A56G, the self-cleavage was 0.0554.

As to C30U G76U, the self-cleavage was found to be 0.805.

Turning to G55U A83U, the self-cleavage worked out at 0.409.

As to A71G C85G, the self-cleavage turned out to be 1.03.

With C58G A87G, the self-cleavage stood at 0.874.

Regarding A51U A56C, the self-cleavage stood at 0.851.

With C15A C64U, the self-cleavage worked out at 0.623.

In the case of A45C C84U, the self-cleavage came to 0.499.

On to C26A G55A, for which the self-cleavage came to 0.888.

G80A C84U: the self-cleavage amounted to 0.197.

Turning to A16G U23A, the self-cleavage is 1.11.

Consider C3G C61G, for which the self-cleavage is 0.561.

On to G6C G59A, for which the self-cleavage is 0.492.

Take C22U A77C: the self-cleavage was determined as 0.141.

As for G1A G10C, the self-cleavage turned out to be 0.35.

For G52U C66A, the self-cleavage came to 0.618.

U9A C41G: the self-cleavage amounted to 0.831.

As for C26U C57U, the self-cleavage turned out to be 1.05.

In the case of G17A U69G, the self-cleavage is 0.906.

On to G52A C63U, for which the self-cleavage was 0.969.

On to C14A C19G, for which the self-cleavage came to 0.

Consider A16C C44G, for which the self-cleavage is 0.317.

Take C30U G38U: the self-cleavage was 0.262.

Consider G25U C61U, for which the self-cleavage came out at 0.163.

On to G39C G52A, for which the self-cleavage was 0.218.

With A45G U79C, the self-cleavage amounted to 0.674.

As for G10U G38A, the self-cleavage was 0.103.

With G6C C75G, the self-cleavage turned out to be 0.0536.

As to G39A G55C, the self-cleavage is 0.443.

For the variant G59C C75U, the self-cleavage worked out at 0.233.

Turning to G5U G11C, the self-cleavage is 0.

As for A42C A78U, the self-cleavage is 0.0449.

Regarding C48G C84G, the self-cleavage stood at 0.646.

As to C3A U47A, the self-cleavage is 0.429.

Consider C4U A70U, for which the self-cleavage was 0.554.

G28U G73C: the self-cleavage worked out at 0.

As to U37A C63A, the self-cleavage was 0.116.

Turning to G53U G73U, the self-cleavage was 0.472.

As for U20C G53A, the self-cleavage was 0.122.

In the case of A42G C49A, the self-cleavage amounted to 0.302.

As for C33U U46G, the self-cleavage came out at 0.65.

Take G28C A83G: the self-cleavage stood at 0.0542.

Consider G28C A83C, for which the self-cleavage came to 0.

Turning to G55A U69G, the self-cleavage is 0.942.

For the variant A43G G53U, the self-cleavage stood at 0.577.

For G29C C57G, the self-cleavage stood at 0.133.

Turning to C19A C21G, the self-cleavage was 0.166.

Turning to G29A C48A, the self-cleavage stood at 0.262.

As for C36G C48A, the self-cleavage was found to be 0.272.

Regarding G1A A45C, the self-cleavage came to 0.268.

Regarding C14A G68C, the self-cleavage stood at 0.388.

Consider G35U G80C, for which the self-cleavage was determined as 0.0567.

Regarding G28A C62A, the self-cleavage was 0.0297.

C44U C84G: the self-cleavage is 0.404.

Take G52C G76U: the self-cleavage came to 1.03.

For A8C C75A, the self-cleavage turned out to be 0.128.

In the case of G81U C85A, the self-cleavage was found to be 0.389.

Take C75A G76C: the self-cleavage came to 0.166.

A8U C61G: the self-cleavage turned out to be 0.623.

Take G40U U69A: the self-cleavage turned out to be 0.623.

With C7G G74U, the self-cleavage was 0.0361.

Regarding C3A G80U, the self-cleavage came to 0.0893.

On to C21G C22A, for which the self-cleavage was found to be 0.0396.

With U60C U69G, the self-cleavage stood at 0.95.

Turning to G11C G31C, the self-cleavage stood at 0.0791.

Take C7A G55U: the self-cleavage was determined as 0.4.

G31A C41U: the self-cleavage was 0.269.

As to U72G A83G, the self-cleavage was 0.58.

Consider C14A U46A, for which the self-cleavage came to 0.199.

As to G1U G35C, the self-cleavage was determined as 0.191.

As to A43C U69G, the self-cleavage was 0.68.

For the variant G34A G68U, the self-cleavage stood at 0.171.

On to G5C G10A, for which the self-cleavage amounted to 0.208.

Consider C26G A77U, for which the self-cleavage is 0.447.

Turning to A56U A71C, the self-cleavage amounted to 0.966.

With G6C C18G, the self-cleavage was 0.

As to A45G C86G, the self-cleavage amounted to 0.95.

Consider G28C C33A, for which the self-cleavage was 0.106.

C32U C84G: the self-cleavage came to 0.399.

On to C7G G59C, for which the self-cleavage is 0.404.

For G40U G68C, the self-cleavage was 0.443.

For G53C A70C, the self-cleavage turned out to be 0.653.

In the case of G6A C61A, the self-cleavage is 0.695.

In the case of C24A G76C, the self-cleavage worked out at 0.936.

As for G6C A78G, the self-cleavage came to 0.

With G29C C32A, the self-cleavage is 0.0791.

As to A51C G82C, the self-cleavage stood at 0.534.

Consider G39A G52U, for which the self-cleavage was 0.478.

G59A C75U: the self-cleavage came to 0.159.

Take G6A C75U: the self-cleavage worked out at 0.193.

With G10C G74A, the self-cleavage is 0.119.

In the case of U47A A83U, the self-cleavage was determined as 0.287.

For C24G C26U, the self-cleavage stood at 0.514.

For the variant A16C A45G, the self-cleavage worked out at 1.05.

For the variant U20A C63A, the self-cleavage is 0.0504.
